Measurements reported in paper doi:10.1101/2023.01.21.525003 (bioRxiv, 2023).

Biological target: Gluc-LHCGRv4 (Gaussia luciferase fused to the N-terminus of the luteinizing hormone/chorionic gonadotropin … (human, UniProt P22888 27-699))
Experiment: FRET or BRET

Sequence of Gluc-LHCGRv4 (Gaussia luciferase fused to the N-terminus of the luteinizing hormone/chorionic gonadotropin … (P22888 27-699): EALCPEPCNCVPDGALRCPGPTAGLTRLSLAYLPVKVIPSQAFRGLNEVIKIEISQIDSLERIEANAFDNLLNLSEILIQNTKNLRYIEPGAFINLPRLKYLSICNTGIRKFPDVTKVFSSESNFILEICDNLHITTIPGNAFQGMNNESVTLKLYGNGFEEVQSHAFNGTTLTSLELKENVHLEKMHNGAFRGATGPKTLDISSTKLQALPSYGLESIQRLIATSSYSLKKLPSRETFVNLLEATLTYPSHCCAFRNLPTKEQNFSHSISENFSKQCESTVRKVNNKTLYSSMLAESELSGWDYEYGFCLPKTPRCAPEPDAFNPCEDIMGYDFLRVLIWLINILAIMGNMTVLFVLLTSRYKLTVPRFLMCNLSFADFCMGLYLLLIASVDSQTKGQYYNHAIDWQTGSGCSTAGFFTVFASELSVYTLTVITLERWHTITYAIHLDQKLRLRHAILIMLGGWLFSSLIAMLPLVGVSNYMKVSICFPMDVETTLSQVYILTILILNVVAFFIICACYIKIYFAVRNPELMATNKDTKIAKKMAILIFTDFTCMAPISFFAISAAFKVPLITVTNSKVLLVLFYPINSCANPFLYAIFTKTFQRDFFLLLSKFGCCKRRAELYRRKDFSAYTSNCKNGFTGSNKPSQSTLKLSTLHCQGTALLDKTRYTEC

B1: LHB^WT-eGFP/CGA (luteinizing hormone: LH beta subunit fused to eGFP, co-expressed with the common glycoprotein alpha subunit) (complex)
chain 1: SREPLRPWCHPINAILAVEKEGCPVCITVNTTICAGYCPTMMRVLQAVLPPLPQVVCTYRDVRFESIRLPGCPRGVDPVVSFPVALSCRCGPCRRSTSDCGGPKDHPLTCDHPQLSGLLFL
chain 2: not shown
B1 was tested, and the “BRET ratio, fold over stimulation with unlabeled hormone” value was 4 fold.
